# Results published in patent publication US20220125891A1 (OSAKA UNIVERSITY, published 2022).
# Where a chain is given by its changes, count along the chain named. Positions of bridges follow the written chain, without caps; N, C: chain ends. Non-standard residues stand in square brackets, D forms with d. No end group written: not given here. NMeA = CN[C@@H](C)C(=O)O; dNMeA = CN[C@H](C)C(=O)O
# T1: full-length human Regnase-1 with a FLAG tag on the N-terminal side and a biotin ligase BirA recognition … (human, UniProt Q5D1E8 1-599, biotinylated where required ; Biotinylated at the BirA recognition sequence where required. That sequence is not in the letters.)
# T1 construct: Expressed in Expi293 cells, purified on FLAG M2 agarose and by gel filtration; also called full-length Regnase-1; human full-length Regnase-1
# T1 sequence: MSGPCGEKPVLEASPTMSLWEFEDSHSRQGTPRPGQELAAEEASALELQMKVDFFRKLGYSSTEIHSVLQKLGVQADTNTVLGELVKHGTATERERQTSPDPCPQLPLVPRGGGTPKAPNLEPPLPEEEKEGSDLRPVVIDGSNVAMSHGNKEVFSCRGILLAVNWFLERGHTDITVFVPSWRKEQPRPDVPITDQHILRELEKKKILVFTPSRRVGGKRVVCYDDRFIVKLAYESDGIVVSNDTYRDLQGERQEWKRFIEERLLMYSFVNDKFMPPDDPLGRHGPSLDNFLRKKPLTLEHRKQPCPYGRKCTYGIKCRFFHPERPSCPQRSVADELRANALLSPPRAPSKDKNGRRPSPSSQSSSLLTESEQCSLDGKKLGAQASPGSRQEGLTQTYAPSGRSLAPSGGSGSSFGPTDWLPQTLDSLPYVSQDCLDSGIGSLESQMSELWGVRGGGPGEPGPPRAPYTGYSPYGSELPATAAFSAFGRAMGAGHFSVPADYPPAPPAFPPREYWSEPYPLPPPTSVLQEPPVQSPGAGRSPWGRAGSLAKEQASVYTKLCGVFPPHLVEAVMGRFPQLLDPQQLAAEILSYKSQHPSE
# T2: Reg1_301-599 (human Regnase-1 amino acids 301 to 599, FLAG tag on the N-terminal side, BirA recognition … (human))
# T2 sequence (Q5D1E8 301-599, looked up): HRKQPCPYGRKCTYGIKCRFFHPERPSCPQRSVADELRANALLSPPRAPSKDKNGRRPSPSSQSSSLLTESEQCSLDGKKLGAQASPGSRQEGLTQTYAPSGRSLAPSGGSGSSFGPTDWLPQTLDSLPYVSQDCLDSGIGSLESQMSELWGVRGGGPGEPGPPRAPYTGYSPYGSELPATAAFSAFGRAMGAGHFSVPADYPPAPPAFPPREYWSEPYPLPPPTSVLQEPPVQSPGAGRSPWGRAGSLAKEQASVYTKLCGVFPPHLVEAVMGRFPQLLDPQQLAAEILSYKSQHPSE
# B1: REB0014 (antibody, V domains shown)
# VH: QSLEESGGGLVKPGGTLTLTCKASGIDFSSYYYMCWVRQAPGKGLEWIACIYSGDGSSYYVSWANGRFTISKTSSATVTLQMTSLTAADTATYFCARDLGNLWGPGTLVTVSS
# VL: QVLTQTPASVSAAVGGTVTINCQASQSVYKNSGLSWFQQKPGQSPKRLIYSASTLDSGVPSRFKGSGSGTQFTLTISDVQCDDAATYYCLGIYVCSSVDCGAFGGGTEVVVKG
# notes: Rabbit antibody gene expressed in HEK293 cells, purified by Protein A; also called anti-Regnase-1 antibody; anti-non-phosphorylated Regnase-1 peptide antibody
# B2: REB0007 (antibody, V domains shown)
# VH: QEQLEESGGDLVKPEGSLTLTCTASGFSFNSRYWICWVRQAPGKGLEWIGCIVSGDSNTYYASWAKGRFTISKTSSTTVTLQMTSLTAADTATYFCARWYTSSRPGLWGPGTLVTVSS
# VL: DVVMTQTPASVSEPVGGTVTIKCQASQSISSYLSWYQQKPGQPPKLLIYSATNLASGVSSRFKGSRFGTEFTLTISDLECDDAATYYCQCSYYVSGFAFGGGTEVVVKG
# notes: as for B1
# B3: REB0022 (antibody, V domains shown)
# VH: QEQLEESGGDLVKPEGSLTLTCTASGGSFSSRYWMCWVRQAPGKGLEWIACIVIGDRNNYYASWAKGRFTISKTSSTTVTLQMTSLTAADTATYFCARWHSSTAPSLWGPGTLVTVSS
# VL: B2 VL with K22N, S50K, T52S, N53T, R66G, F67S, D81A, A98V
# notes: as for B1
# Biological target: T1, full-length human Regnase-1 with a FLAG …
# Test: AlphaScreen, blocks TBK1 binding to FL_Reg1
row,IC50 [µM],Binder
1,11.4,[NMeA]NSWYRIWGLD (lactam N-11) [PP22]
2,9.2,[dNMeA]PTSSWYKIWD (lactam N-11) [PP23]
3,19.2,[dNMeA]PNSSWFKIWD (lactam N-11) [PP6]
4,15.5,[NMeA]GYANSWYNIWD (lactam N-12) [PP2]
5,> 62.1,[NMeA]TSWYKVNWGQD (lactam N-12) [PP1]
6,11.5,[NMeA]HSNAWYNIWD (lactam N-11) [PP5]
7,24.4,[NMeA]YIWDFFGDLD (lactam N-11) [PP4]
8,3.1,[dNMeA]KHASAWYRIWD (lactam N-12) [PP3]

# Biological target: T1, full-length human Regnase-1 with a FLAG …
# Test: AlphaScreen, blocks TBK1 binding to FL_Reg1
# Remark: another data set of the same source
row,IC50 [µM],Binder
1,19.2,[dNMeA]PNSSWFKIWD (lactam N-11) [PP6]
2,15.5,[NMeA]GYANSWYNIWD (lactam N-12) [PP2]
3,> 62.1,[NMeA]TSWYKVNWGQD (lactam N-12) [PP1]
4,11.5,[NMeA]HSNAWYNIWD (lactam N-11) [PP5]
5,24.4,[NMeA]YIWDFFGDLD (lactam N-11) [PP4]
6,3.1,[dNMeA]KHASAWYRIWD (lactam N-12) [PP3]

# Biological target: T2, Reg1_301-599 (human Regnase-1 amino …)
# Test: cell-based or functional assay
row,"IC50, phosphorylation by IKKβ [µM]",Binder
1,31,[NMeA]NSWYRIWGLD (lactam N-11) [PP22]
2,> 62.1,[dNMeA]PTSSWYKIWD (lactam N-11) [PP23]
3,17.5,[dNMeA]PNSSWFKIWD (lactam N-11) [PP6]
4,18.5,[NMeA]GYANSWYNIWD (lactam N-12) [PP2]
5,> 62.1,[NMeA]TSWYKVNWGQD (lactam N-12) [PP1]
6,31.3,[NMeA]HSNAWYNIWD (lactam N-11) [PP5]
7,12.8,[NMeA]YIWDFFGDLD (lactam N-11) [PP4]
8,6.8,[dNMeA]KHASAWYRIWD (lactam N-12) [PP3]

# Biological target: T1, full-length human Regnase-1 with a FLAG …
# Test: cell-based or functional assay
row,"IC50, phosphorylation by IKKβ [µM]",Binder
1,15,[NMeA]NSWYRIWGLD (lactam N-11) [PP22]
2,25.6,[dNMeA]PTSSWYKIWD (lactam N-11) [PP23]
3,17,[dNMeA]PNSSWFKIWD (lactam N-11) [PP6]
4,16.6,[NMeA]GYANSWYNIWD (lactam N-12) [PP2]
5,28.1,[NMeA]TSWYKVNWGQD (lactam N-12) [PP1]
6,23.6,[NMeA]HSNAWYNIWD (lactam N-11) [PP5]
7,19.5,[NMeA]YIWDFFGDLD (lactam N-11) [PP4]
8,4.6,[dNMeA]KHASAWYRIWD (lactam N-12) [PP3]

# Biological target: T3, ΔCTD_Reg1 (human Regnase-1 amino acids 1 to 546, FLAG tag on the N-terminal side, BirA recognition sequence … (human))
# Test: cell-based or functional assay
row,"IC50, phosphorylation by IKKβ [µM]",Binder
1,34,[NMeA]NSWYRIWGLD (lactam N-11) [PP22]
2,> 62.1,[dNMeA]PTSSWYKIWD (lactam N-11) [PP23]
3,20.3,[dNMeA]PNSSWFKIWD (lactam N-11) [PP6]
4,14,[NMeA]GYANSWYNIWD (lactam N-12) [PP2]
5,> 62.1,[NMeA]TSWYKVNWGQD (lactam N-12) [PP1]
6,20.4,[NMeA]HSNAWYNIWD (lactam N-11) [PP5]
7,8.3,[NMeA]YIWDFFGDLD (lactam N-11) [PP4]
8,8.3,[dNMeA]KHASAWYRIWD (lactam N-12) [PP3]

# Biological target: T1, full-length human Regnase-1 with a FLAG …
# Test: affinity selection-MS (SEC, LC/MS), 1 µM each
row,AS-MS ratio(%),Binder
1,14.5,[NMeA]NSWYRIWGLD (lactam N-11) [PP22]
2,28.6,[dNMeA]PTSSWYKIWD (lactam N-11) [PP23]
3,6.4,[dNMeA]PNSSWFKIWD (lactam N-11) [PP6]
4,14.2,[NMeA]GYANSWYNIWD (lactam N-12) [PP2]
5,21.8,[NMeA]TSWYKVNWGQD (lactam N-12) [PP1]
6,20.8,[NMeA]HSNAWYNIWD (lactam N-11) [PP5]
7,37.5,[NMeA]YIWDFFGDLD (lactam N-11) [PP4]
8,1.2,[dNMeA]KHASAWYRIWD (lactam N-12) [PP3]

# Biological target: T1, full-length human Regnase-1 with a FLAG …
# Test: AlphaScreen, blocks IKKβ binding to FL_Reg1
row,IC50 [µM],Binder
1,42.1,[dNMeA]PNSSWFKIWD (lactam N-11) [PP6]
2,35.8,[NMeA]GYANSWYNIWD (lactam N-12) [PP2]
3,> 62.1,[NMeA]TSWYKVNWGQD (lactam N-12) [PP1]
4,24,[NMeA]HSNAWYNIWD (lactam N-11) [PP5]
5,47.7,[NMeA]YIWDFFGDLD (lactam N-11) [PP4]
6,8.3,[dNMeA]KHASAWYRIWD (lactam N-12) [PP3]

# Biological target: T2, Reg1_301-599 (human Regnase-1 amino …)
# Test: cell-based or functional assay
# Remark: another data set of the same source
row,"IC50, phosphorylation by TBK1 [µM]",Binder
1,25.8,[NMeA]NSWYRIWGLD (lactam N-11) [PP22]
2,30.7,[dNMeA]PTSSWYKIWD (lactam N-11) [PP23]
3,16.8,[dNMeA]PNSSWFKIWD (lactam N-11) [PP6]
4,22.4,[NMeA]GYANSWYNIWD (lactam N-12) [PP2]
5,> 62.1,[NMeA]TSWYKVNWGQD (lactam N-12) [PP1]
6,40.4,[NMeA]HSNAWYNIWD (lactam N-11) [PP5]
7,35.9,[NMeA]YIWDFFGDLD (lactam N-11) [PP4]
8,7.1,[dNMeA]KHASAWYRIWD (lactam N-12) [PP3]

# Biological target: T1, full-length human Regnase-1 with a FLAG …
# Test: cell-based or functional assay
# Remark: another data set of the same source
row,"IC50, phosphorylation by TBK1 [µM]",Binder
1,24.3,[NMeA]NSWYRIWGLD (lactam N-11) [PP22]
2,18.8,[dNMeA]PTSSWYKIWD (lactam N-11) [PP23]
3,13.1,[dNMeA]PNSSWFKIWD (lactam N-11) [PP6]
4,21.7,[NMeA]GYANSWYNIWD (lactam N-12) [PP2]
5,54.5,[NMeA]TSWYKVNWGQD (lactam N-12) [PP1]
6,24.2,[NMeA]HSNAWYNIWD (lactam N-11) [PP5]
7,61.9,[NMeA]YIWDFFGDLD (lactam N-11) [PP4]
8,3.9,[dNMeA]KHASAWYRIWD (lactam N-12) [PP3]

# Biological target: T3, ΔCTD_Reg1 (human Regnase-1 amino acids …)
# Test: cell-based or functional assay
# Remark: another data set of the same source
row,"IC50, phosphorylation by TBK1 [µM]",Binder
1,22.8,[NMeA]NSWYRIWGLD (lactam N-11) [PP22]
2,29.7,[dNMeA]PTSSWYKIWD (lactam N-11) [PP23]
3,14.5,[dNMeA]PNSSWFKIWD (lactam N-11) [PP6]
4,17.6,[NMeA]GYANSWYNIWD (lactam N-12) [PP2]
5,> 62.1,[NMeA]TSWYKVNWGQD (lactam N-12) [PP1]
6,19.1,[NMeA]HSNAWYNIWD (lactam N-11) [PP5]
7,44.9,[NMeA]YIWDFFGDLD (lactam N-11) [PP4]
8,5.7,[dNMeA]KHASAWYRIWD (lactam N-12) [PP3]

# Biological target: T1, full-length human Regnase-1 with a FLAG …
# Test: flow cytometry of antigen-coated streptavidin beads
row,binding result,Binder
1,binds,B1
2,binds,B2
3,binds,B3

# Biological target: T1, full-length human Regnase-1 with a FLAG …
# Test: cell-based or functional assay
# Remark: another data set of the same source
"IC50, phosphorylation by IKKβ [µM]","IC50, phosphorylation by TBK1 [µM]",Binder
17,13.1,[dNMeA]PNSSWFKIWD (lactam N-11) [PP6]
16.6,21.7,[NMeA]GYANSWYNIWD (lactam N-12) [PP2]
28.1,54.5,[NMeA]TSWYKVNWGQD (lactam N-12) [PP1]
23.6,24.2,[NMeA]HSNAWYNIWD (lactam N-11) [PP5]
19.5,61.9,[NMeA]YIWDFFGDLD (lactam N-11) [PP4]
4.6,3.9,[dNMeA]KHASAWYRIWD (lactam N-12) [PP3]

# Biological target: T3, ΔCTD_Reg1 (human Regnase-1 amino acids …)
# Test: cell-based or functional assay
# Remark: another data set of the same source
"IC50, phosphorylation by IKKβ [µM]","IC50, phosphorylation by TBK1 [µM]",Binder
20.3,14.5,[dNMeA]PNSSWFKIWD (lactam N-11) [PP6]
14,17.6,[NMeA]GYANSWYNIWD (lactam N-12) [PP2]
> 62.1,> 62.1,[NMeA]TSWYKVNWGQD (lactam N-12) [PP1]
20.4,19.1,[NMeA]HSNAWYNIWD (lactam N-11) [PP5]
8.3,44.9,[NMeA]YIWDFFGDLD (lactam N-11) [PP4]
8.3,5.7,[dNMeA]KHASAWYRIWD (lactam N-12) [PP3]

# Biological target: T1, full-length human Regnase-1 with a FLAG …
# Test: AlphaScreen, blocks IKKβ binding to FL_Reg1
# Remark: another data set of the same source
row,IC50 [µM],Binder
1,26.8,[NMeA]NSWYRIWGLD (lactam N-11) [PP22]
2,41.3,[dNMeA]PTSSWYKIWD (lactam N-11) [PP23]
3,42.1,[dNMeA]PNSSWFKIWD (lactam N-11) [PP6]
4,35.8,[NMeA]GYANSWYNIWD (lactam N-12) [PP2]
5,> 62.1,[NMeA]TSWYKVNWGQD (lactam N-12) [PP1]
6,24,[NMeA]HSNAWYNIWD (lactam N-11) [PP5]
7,47.7,[NMeA]YIWDFFGDLD (lactam N-11) [PP4]
8,8.3,[dNMeA]KHASAWYRIWD (lactam N-12) [PP3]
